Test system: MS2 coat protein
Experiment: apparent KD of MS2 coat protein; designed switch direction (-1 OFF switch, 1 ON switch): -1; higher = weaker reporter binding
Method in brief: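 Normalised cluster fluorescence was curve-fitted, and each design's median over clusters is its apparent KD. Before this, SNAP-549-labelled MS2 coat protein was titrated from 0.7 or 1.5 nM, doubling to 3 µM, over RNA switches transcribed on Illumina chips by stalled E. coli RNA polymerase. Titrations had no input, 200 uM small-molecule ligand, or an oligonucleotide input, and steps lasted 0.8–1.5 h (lowest) to 10–20 min (highest).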

[1] = input ligand: microRNA oligo, concentration not stated
[2] = Eterna round: R95, input ligand: FMN 200 uM
[3] = Eterna round: R95, input ligand: microRNA oligo, concentration not stated
[4] = Eterna round: R95, input ligand: none

Row | Sequence | apparent KD of MS2 coat protein (input ligand: FMN 200 uM) [µM] | apparent KD of MS2 coat protein (input ligand: none) [µM] | apparent KD of MS2 coat protein [1] [µM] | apparent KD of MS2 coat protein [2] [µM] | apparent KD of MS2 coat protein [3] [µM] | apparent KD of MS2 coat protein [4] [µM]
1 | CCGGCAUGAGGAUAUCCAUCUGGAUCAGACAAGAUCCUGAUGGAGAAGGCACAUGAGGAUCACCCAUGUUACGG [Mat - Exclusion 4 - Eli Mod - D56] (Eterna round: R97, puzzle: Exclusion 4) | 0.0618 | 0.132 |  |  |  | 
2 | CGAGACGGAGGAUAUACAUGAGGAUCACCCAUGUUAAACCACGGGUAGCCUUCGGUCGGUAGAAGGCCGCAUCG [Eternabot (Original) Solution 47] (Eterna round: R97, puzzle: Exclusion 3) | 0.0867 | 0.0212 |  |  |  | 
3 | AGCGCCAUCGUGAGAUGGCGUAUUACAUGAGGAUCACCCAUGUAGGAUAUCGAUUGCUUUGCAGUCGAGAAGGGCAUGUCCAAG [JL ENG3 3.80 Mod I] (Eterna round: R96, puzzle: Exclusion NG 3) | 0.0454 | 0.035 | 0.0378 |  |  | 
4 | AGAAGUAGUAACCGAUCCUACAUGAGGAUCACCCAUGUAGCUAGACGUGCACGCGACGCUCGUCAGACUACCAGAUG [salish99_TOv1_r3_029] (puzzle: Sensor v3, turn-off variant 1) |  |  |  | 0.27 | 0.324 | 0.417
5 | AAACGGCAGGGAGGAUAUGCUUACCUGGGUCGUCUUCAAACAUGAGGAUCACCCAUGUAGUCGACGCAGAAGGCCCUCAAAGCC [JL ViennaUCT Ontiis mod] (Eterna round: R96, puzzle: Exclusion NG 2) | 0.144 | 0.0186 | 0.018 |  |  | 
6 | AUGCGCAAGCUUUUUGUUCACAUGAGGAUCACCCAUGUUAUGGUCGCCUGUGAGGAGCGAUAGCGUCUCCGACCUGA [Eternabot (Original) Solution 31] (Eterna round: R97, puzzle: Sensor, turn-off variant 1) | 0.0357 | 0.0365 |  |  |  | 
7 | ACUAGCUUUUUGCAUUUUAGGUUUGUUGCUUCGUAUGUAACAUGAGGAUCACCCAUGUAUUACUGAUGUCGUCGUUU [JR_SV3TOV2_Sub090] (puzzle: Sensor v3, turn-off variant 2) |  |  |  | 0.0184 | 0.0165 | 0.0185
8 | GACUAGAGAGGAUAUAUUUACAGUGUACCUCGGAUGAUCGCACUUGAGGAUCACCCAAGUAGAAGGCUCGAGGG [EX2 #29] (Eterna round: R97, puzzle: Exclusion 2) | 0.011 | 0.0152 |  |  |  | 
9 | UACCUACAUGAGGAUCACCCAUGUCAGGAUAUCCGUGUGAACGAGUCGUUACACAGGCGGAGAAGGGACAUCGG [Eternabot (L1) Solution 65] (Eterna round: R97, puzzle: Exclusion 1) | 0.0945 | 0.0542 |  |  |  | 
10 | AGAUGUAGAUACCGGUCCUACAUGAGGAUCACCCAUGUAGCUAGACGUGCGGGCGGCGCUCGUCGGACUACCAGUAG [salish99_TOv1_r3_098] (puzzle: Sensor v3, turn-off variant 1) |  |  |  | 0.0394 | 0.0428 | 0.0597
11 | GGUACUAACACGAUAGUGUUAGUACUAUAAGCUUGUGUUACAUGAGGAUCACCCAUGUCCUCAUAGGCUCGUCUUAG [Mat - Sensor v3 - Turn-off var 2 - D85] (puzzle: Sensor v3, turn-off variant 2) |  |  |  | 0.0871 | 0.0231 | 0.106
12 | GAAAAGGUAGAGGAUAUUUCAGAUCAAAGCUGCAAAGAAGGCUGCACAUGAGGAUCACCCAUGUGGUCAAUAAA [Mod of Quesina 12 - Jieux - Exclusion 6] (Eterna round: R97, puzzle: Exclusion 6) | 0.0597 | 0.0209 |  |  |  | 
13 | UGGAUAACAGGAUAUACAUGAGGAUCACCCAUGUUUCCGGACGGAGACGAAUCCUAGAGUAGAAGGGUUAUCCC [Eternabot (Original) Solution 17] (Eterna round: R97, puzzle: Exclusion 3) | 0.388 | 0.362 |  |  |  | 
14 | CUUUUGUGAGGAUAUUAGUAGUUUAUAAUUGGUGUUAUUGCUGAGAAGGCACAUGAGGAUCACCCAUGUACAAC [JR_Ex4_Sub033] (Eterna round: R97, puzzle: Exclusion 4) | 0.0979 | 0.037 |  |  |  | 
15 | GGUGUUGAAGGAUAUACAUGAGGAUCACCCAUGUACCGCUCGGACAAGAUAUCAUUCAGUAGAAGGUCGGACCG [Eternabot (L2) Solution 11] (Eterna round: R97, puzzle: Exclusion 3) | 0.0665 | 0.15 |  |  |  | 
16 | AGAUGCUCAAGUCGACAUGAGGAUCACCCAUGUACAGUUAAUGAGGAUAUCCGAGAUAAAUAAUAGGAGAAGGCAUGAUCAUGA [Ex NG3 #4] (Eterna round: R96, puzzle: Exclusion NG 3) | 0.103 | 0.102 | 0.0473 |  |  | 
17 | GAUGGAGAGCAGGAUAUCUUGGGUAAGCAUCAUAGAGAAGGGCUCACAUGAGGAUCACCCAUGUGGUCCAAGAA [Usbiridi] (Eterna round: R96, puzzle: Exclusion 6) | 0.057 | 0.0183 | 0.0151 |  |  | 

Row | Sequence | apparent KD of MS2 coat protein (input ligand: FMN 200 uM) [µM] | apparent KD of MS2 coat protein (input ligand: none) [µM] | apparent KD of MS2 coat protein [1] [µM] | apparent KD of MS2 coat protein [2] [µM] | apparent KD of MS2 coat protein [3] [µM] | apparent KD of MS2 coat protein [4] [µM]
18 | CGUGUACUGCAGGAUAUCCUAGAUGCGGACAUCGGAGAAGGGCAGACAUGAGGAUCACCCAUGUGUGGCGGAGA [EX6 B.16] (Eterna round: R97, puzzle: Exclusion 6) | 0.221 | 0.0673 |  |  |  | 
19 | AGUAACCGUCACGAAAGUGAUGGUUACACAAGCAAAUGUACAUGAGGAUCACCCAUGUCCUCGUUUGCUCGUCUUAU [Sensor 3 - 49] (puzzle: Sensor v3, turn-off variant 2) |  |  |  | 0.0269 | 0.0967 | 0.0312
20 | UUCAGUCUAGAGGAUAUGCUGGAUUAAUAUCUGGCAGAAGGCUGGACAUGAGGAUCACCCAUGUAAAUACUACC [Omei Ex6 A5] (Eterna round: R97, puzzle: Exclusion 6) | 0.356 | 0.0683 |  |  |  | 
21 | AUAACAAGCUUUUUGCUCGUCGUAUAUGACGCUCGAGUCACAUGAGGAUCACCCAUGUCUUCCUGUUUGAUUGUUGA [JR_SV3TOV2_Sub056] (puzzle: Sensor v3, turn-off variant 2) |  |  |  | 0.148 | 0.122 | 0.177
22 | GGACCCAAAGGAUAUACUUGAGGAUCACCCAAGUAUGUCGCUUGGGCACGGUAAAGGAGUAGAAGGUUGGGAAA [Esri] (Eterna round: R97, puzzle: Exclusion 3) | 0.0176 | 0.0144 |  |  |  | 
23 | UCACGGGAUUGAGGAUAUAUAUUAAUUUUUACAAUAGAAGGCAAAUUGUUAGUUUUUUCACUUUACAUGAGGAUCACCCAUGUU [JR_ExcBG1_Sub080] (Eterna round: R96, puzzle: Exclusion NG 1) |  |  | 0.0196 |  |  | 
24 | CCAGAUGCAGGAUAUGUAAAAUUUGACAUGAGGAUCACCCAUGUAGAUCCUGAAUUUCCUGCAGAAGGGCAUCUGG [Mat - Exclusion 5 - Eli Mod - D20] (Eterna round: R97, puzzle: Exclusion 5) | 0.288 | 0.105 |  |  |  | 
25 | CUUAGACAUGAGGAUCACCCAUGUGAGGAUAUGAUGCAGCAGUGGUCUACGCUGUGCAUCAGAAGGCACAUGUG (puzzle: Exclusion 1) |  |  |  |  | 0.0624 | 
26 | CUCAUUCGAGGAUAUGCAGAAUGGGUCCAAUCAUAAGACAUACAUGAGGAUCACCCAUGUAGAAGGCGGCCAUC [Eternabot (L1) Solution 59] (Eterna round: R97, puzzle: Exclusion 2) | 0.026 | 0.0256 |  |  |  | 
27 | GUCACAUGGACAUAGGAUCACAUGAGGAUCACCCAUGUGACUAACAAGCUUUUUGUUCGUCUUAUGUCUAUGUGAAA [Stov1/16-B1] (Eterna round: R97, puzzle: Sensor, turn-off variant 1) | 0.0135 | 0.0116 |  |  |  | 
28 | GCAGUGUCAGGAUAUUCGAGUUCGAGUGAAAGCUUGAGCUUGAAGAAGGGACAUGAGGAUCACCCAUGUGCUGU [-28.7, -27.7 kcal, A 27%, 1bis-(ca)1bis] (Eterna round: R97, puzzle: Exclusion 4) | 0.117 | 0.0421 |  |  |  | 
29 | CUUAUGUGAGGAUAUCAGUAGUAAUACAAUAGUAUUACUACUGAGAAGGCACAUGAGGAUCACCCAUGUUCUUC [Exclusion 4 - Mod Omei Ex4 344 mod v.2] (puzzle: Exclusion 4) |  |  |  |  | 0.103 | 
30 | GAAGAGACAGGAUAUACAUGAGGAUCACCCAUGUGAGGAGGAAGAGAGAGGAGAAGGAGUAGAAGGGUCAGAGG [JR_Exclu3_Sub028] (puzzle: Exclusion 3) |  |  |  | 0.0321 | 0.0412 | 0.0465
31 | GAGUGCUGAGGAUAUACAUGAGGAUCACCCAUGUGCUUCAGCUAGGAGACUAGCAUUCGUAGAAGGCAGUACUC [Mod of lroppy 22 - Jieux - Exclusion 3] (Eterna round: R97, puzzle: Exclusion 3) | 0.0426 | 0.0147 |  |  |  | 
32 | AAGGUGUUAGGAUAUCGAAGGUUGUGGCAGGCGGGAAUUUGCGAGAAGGAACAUGAGGAUCACCCAUGUAAAAU [JR_Exclu4_Sub042] (puzzle: Exclusion 4) |  |  |  |  | 0.025 | 
33 | CGUAGUCUUCGGACUACGAACAUGAGGAUCACCCAUGUAAUGAGCAGAUCCUCAUGCAAGCUUUUUGCUCGUCUUAU [Sensor v3 - turn-off variant 1 - 46] (puzzle: Sensor v3, turn-off variant 1) |  |  |  | 0.0138 | 0.0115 | 0.0207

From the supplement of paper PMC9170038
